# According to PMC6402988:
# Target: rVSV-EBOV GPΔβ17-β18 (Zaire ebolavirus (EBOV)) (UniProt Q05320)
substance,measurement,value
ADI-15946 IgG (antibody),neutralization efficiency of rVSV-EBOV GPΔβ17-β18 compared to GPWT,10 fold
